Results from the supplement of paper PMC9170038.

Test system: K4 kissing-loop RNA reporter
Experiment: apparent KD of K4 kissing-loop reporter; higher = weaker reporter binding
Conditions: Eterna round: R107
Experimental: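 RNA-MaP round R107: designed RNA switches with theophylline, tryptophan, arginine or FMN aptamers are transcribed on-chip within common flanks. They are titrated with a labelled K4 kissing-loop RNA reporter in RNA-MaP buffer (100 mM Tris pH 7.5, 80 mM KCl, 4 mM MgCl2), without ligand or with the indicated ligand. Median apparent KD per design.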

[1] = input ligand: theophylline 20 uM
[2] = input ligand: tryptophan 2.4 mM
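Further: bound reporter read as fluorescence of individual clusters on recovered sequencing chips by microscopy, with normalized cluster intensities fitted with a binding model.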

Sequence	apparent KD of K4 kissing-loop reporter (input ligand: FMN 200 uM) [nM]	apparent KD of K4 kissing-loop reporter (input ligand: arginine 13.2 mM) [nM]	apparent KD of K4 kissing-loop reporter (input ligand: none) [nM]	apparent KD of K4 kissing-loop reporter [1] [nM]	apparent KD of K4 kissing-loop reporter [2] [nM]
UGAUACCAGACGGCCGCCACUAGGACCGGGAGUGAUGUUCCCAAUUUAAAAUGCUCGGCCGCCACUAGGACCGGGUCUGGUAUCU [TrypBX 27 #DoubleAptamer #SwitchBubble]	173	207	198	305	109
UGACUGGACUGAAGGAGCGCUGAACUCCUAGUGAUGUUAGGACAACGAGACAAAGUCUCGAAGCAGGUAGGUCGCAGUCUAGUCU	154	129	154	152	184
AAGUAGCUCUCGGCCGCCACUCCUCAGUGAUGUUGAGAUAUUAACUGCCAAUUGGCGUAUUUAAAGAGGACCGGGAGAGCUACAA [AK2 SS Tryptophan B]	389	389	476	397	129
UUACGAGUGAUGUUCGAAUAAAUCCAUUCAGAGGAUAUAGUAUUAACUAGAAGGCUGAAACCAACUUCGAGUGAUGUUCGAGGAU [Same State FMN A GF 3]	94.5	87.7	108	88.4	90.8
UGUAUGUGAUUUGAUACCAGACCAGUUGGUGGUAUAUGAGUGAUGUUUAUGUUGGUUUGGGUCCCUUGGCAGCAAAUCGCAUACU [KL-SSTheoB11]	591	307	491	356	386
ACUUGAGCACAAAGCACACCAAGCAGUAGGUAGGAUAUCCGGCUUAGGAGAAGGACCAUGCAGUGAUGUUGCAUGCUCCUCCAUG [Onraordi]	267	94.7	101	102	93
GAGAUAGAGGCGGCCGCCACUAGUGAUGUUAGUGAUGUUAGAAAGAGAAUAGAACAGGGAUUAGAUAGGACCGGGCCAGAUGGAG [vvhmullin]	64.4	46	60.4	62.2	60.1
GCCGUAGAUGGAAGGAGCGUGAAUGGCCUCUAUCCAAAGUGAUGUUUUGUUGAAGACUGUUCACAGGUAGGUCGCCAUCUACGGC	165	125	135	135	140
UGUACCGAGUCAGGAUAUGUCGUCGAAAGACGAAUCCUAGUGAUGUUAGGGAUCUGCGAAAGCAGUGCAGAAGGGACUUGGUACU [FmnBS 26 U20+G67]	235	182	216	226	207
CGUCACACUUGAUGGUUAUCCAAUGAUGAUACCAGCCGUCGAGAUGGCCCUUGGCAGCAUGUGGUACAGUGAUGUUGUACAUUGG [theeternabot_sameState_KL_Theo_A_30]	392	244	383	352	258
CGGCUUAGUAGCGCGAGUUGACGUGCCAUCCGAGGACCGGUACGGCCGCCACUCGUGAUCUGUUAAAGUGAUGUUUUAAUGCCAU	722	602	712	711	639
UGUAUGUGAUUUGAUACCAGACCAUCUUGUGAGAAAUGAGUGAUGUUUAUUUUGGUUUGGGUCCCUUGGCAGCAAAUCGCAUACU [KL-SSTheoB24]	507	356	505	419	439
GGUGAUGAGCACGAUACCAGCCUCGGAGCCAGUGAUGUUGGCCCAAUUUAAAAUAAGAUAGGCCCUUGGCAGCGUGACGAUGGCU [Rainle]	727	727	711	466	643
UGAUGUUUAGGUCACCCAGUGAUGUUGGAAGGAGCGUGCGAAAGCACAGGUAGGUCGCCAACCUAAAAGUGACCUGAGCAUCUAA [#SwitchBubble 8 #K4Early]	496	210	511	427	846
AACUGUCAAGGAACUUGCAACAAAGGUGAUACCAGCAUCGAAAGAUGCCCUUGGCAGCACCAACUUGCAGUGAUGUUGCAAGUAA [(T)'-(H)'-(T1)-(T2)-(H1)-(H2)_Design7]	300	243	322	402	286
GGGAGUAGUGCGGCCGCCACUGAGAAAGAAGAAGAAUAUAGUGAUGUUAUAUAGGAAGGGAAGAAUAGGACCGGGCAUUAGAUUU [SSTRyptB.Z]	336	250	340	275	233
GGCACUUUUGCUUGGAACCGUCAAGCUCUAUAGGAUAUGCCGAAAGGCAGAAGGAUGGACCUACAGAGUGAUGUUCUGCGUGCCU	393	140	583	134	218
UAACAGGCCCUCACCGUCUUAUUUACAGACCGAGGACCGGUACGGCCGCCACUCGUGAAGUGAUGUUUCAAACAAGCGGUAGGAU	721	467	685	480	328
ACGACGCAUAGUGAUACCAGCACAAUAUGAGUGAUGUUCAACAUAUAAAUGUAAUAAUUAUGCCCUUGGCAGCACUAUGCGUCAG [KL-SSTheoB1]	658	660	793	707	591
CACCUGCCAUAAGGAUAUUCGUCUUUGCGCUUCCAGUGAUGUUGGAGAUCGCAACACAUGGUCAUAGAAGAAGGUAUGGUAUUAA [theeternabot_sameState_KL_FMN_B_35]	154	186	195	191	186
UGCAUCGUUGGCAGGCGCACCACACAGUGUAAGGAUAUGAUGUCGUUCAGAAGGUACGCUUGACCGAGUGAUGUUCGGGAGUGCC [theeternabot_sameState_KL_FMN_A_9]	224	200	218	245	196
UGGAGUUGACGAAGAGUCAACUCCUGAGAUACCAGUGACGAAAGUCACCCUUGGCAGCUCUCUGCCAGUGAUGUUGGUUUAUAAG [#07 K4 Theophylline A Same State]	139	89.4	144	177	117

Sequence	apparent KD of K4 kissing-loop reporter (input ligand: FMN 200 uM) [nM]	apparent KD of K4 kissing-loop reporter (input ligand: arginine 13.2 mM) [nM]	apparent KD of K4 kissing-loop reporter (input ligand: none) [nM]	apparent KD of K4 kissing-loop reporter [1] [nM]	apparent KD of K4 kissing-loop reporter [2] [nM]
CUCGAGUGAUGUUCCUUUAUUUAUACAGAUACCAGUGAAUUUUAACACCCUUGGCAGCUGGUUGUAUCUUUGUUUUUUACACAUG [JR_Nu_ExcTheophyA_Sub025]	204	128	205	270	155
AGAACUGUCUGAGAUACCAGCUAAGGAGUGAUGUUCCUAGCUCCACGAAAGUGGAGCCAUAGCCCUUGGCAGCUCAGACAGUUCA [Omei KL Theo B SS A v6]	866	588	1050	584	747
AAUAUAUAGUGAAGGAGCGCGUAUUGCAGUGAUGUUGCUAAGUUAUUAUUAUCUAUUUUUACGCAGGUAGGUCGCACUAUAUAUA [JR_SSArginiB_Sub014]	213	231	224	245	193
UGUACCGAGUCAGGAUAUGGCGUCGAAAGACGAAUUCUAGUGAUGUUAGGGAUCUGCGAAAGCAGUUCAGAAGGGACUUGGUACU [FmnBS 26 U36+U67]	243	288	342	470	360
AUUUUCAAUUUAUUAUAUAACUUUUCAGAAGGAGCGUGGAAGUUCACAGGUAGGUCGCUGAAUAUAGGACUAGUGAUGUUAGUUA [JR_Nu_SSArginiA_Sub023]	284	247	279	268	258
GGUAGCAUGGCGGCCGCCACUCGCUAGUGAUGUUAGCGGGAUGAGACAAAGGACAUAACUUUAUCGAGGACCGGGCCAUGCUACC	88.2	66.5	75.8	62.2	92.9
GGAGGGAUCUCGGCCGCCACUCAUAAGAAAUGGGCCUCAGGGAUAUAGUGAUGUUAUGUAAAGAAGAGGACCGGGAGAAAGAAGG [ExTryptoB.Dc]	263	245	248	348	175
UUAGAAGUAUACUUCAAGAGGUAUGCUGAUACCAGAGUCAAUUGACUCCCUUGGCAGCGGAUCGAGUGAUGUUCGUAACCUCAUU [AK3.1 SS Theophylline A]	160	238	209	246	141
AACUCUCAGACACUUGAGUGAUGUUCAGACCGAGGACCGGUACGGCCGCCACUCGGGUCUGAGAGAGGUUAUCAAAGAUAGCCAA [Omei KL Tryp A SS A v7]	280	222	336	292	905
GGAUUGCCAGUGAUGUUGGCAUAAACUGAAGGAGCGCGUGAAAACGCAGGUAGGUCGCAGAACCUUGCCAACUGAUCGAAAGAUC [Ex Arginine A K4 29]	123	138	121	122	106
AGUUUAUAGGAGGAUACCAGUACGGAUAAGGUACGUUAAUAGUAGAGUGAUGUUCUAAAGUACCCUUGGCAGCUUAGAUUGAGUU [#27 K4 Theophylline B Exclusion]	110	171	130	133	101
GUUGAUCAUGGAAGGAGCGCCCAUUGUCGACACGAGUGAUGUUCGUGUCGUUGAUUACGAGGGCAGGUAGGUCGCCGUGUGCUUU [Rabele]	149	109	124	116	119
GGAACUACGACGGCCGCCACUCUGUAUCCCAACGUUAAGGUCCUAACUGCAAGUGAUGUUUGUGCGAGGACCGGGUCUCCCUUGC [theeternabot_exclusion_KL_Trp_B_30]	258	213	272	218	217
UGAUACCAGACUGAUACCAGCUAGUGAUGUUAGCUGAAAUCAGGGUCAAAGACCCUGUCUGGCCCUUGGCAGCAGUCUGGUAUCU [TheoBX 18 #SwitchBubble #StaticStem]	83.2	72.3	76.2	73.2	71.2
AAUUCAAACUGAAGGAGCGAGCAAAUCGGAGUGAUGUUCCAAGCGAGUGAUGUUCGCAUAGCUCAGGUAGGUCGCAGUUUGGAUA [Same State Arginie B GF 13]	120	95.2	107	101	101
AGGCACGAGCAAGGAUAUCGAGUAGAGUGAUGUUCUGCCUGGGUUGGCGCGGAAGGGCCUUCCCAGCGAGAAGGUGCUCGUGCCU [#2 Same State - FMN A Attempt #10 (HarryS)]	293	569	838	615	786
AAUGCAUAGUGAAGGAGCGCGUAUAGCAGUGAUGUUGCUUACUUAUUAUUAUAUUAAUUGACGCAGGUAGGUCGCACUUUGCAUA [JR_ExcArginiB_Sub022]	196	144	196	181	156
GCCCGAAAGGGCCGAAGUGUUUGCGGCGAUCGAGGACCGGUACGGCCGCCACUCGUCGAGGCGUUCAGUGAUGUUGAAAGCAUGA	250	257	215	266	480
UGAUAGGACAGAAGGAGCGGUAGUGAUGUUGCCAAAAGGGUAAGGUGUCAAAAGACACCCUACCAGGUAGGUCGCUGUCCUAUCU	83.9	93.2	84.6	87	83.4
GCAUCCAUGGCAGGAUAUAGGUUCAUGGAGUGAUGUUCCAUAACCCGAGUGAUGUUCGUUAUCCACCUAGAAGGGCCAUGGAUGC	208	173	206	196	180
GCCGUACGCACGGAUACCAGCACUCGGUGAGUGAUGUUCACGGUGUGGUAUUCAUCGGGCUGCCCUUGGCAGCCGUGCGUACGGC	153	93.6	101	129	107
GGUGCUGUUUGUGCCGCCUUCCUCGUUCCUCGAGGACCGGUACGGCCGCCACUCGAGUGAUGUUUGGGUAGCGAUCCCUGCUAGC [Bdazzled - #14 Exc. Tryptophan A]	470	538	1370	566	413
